Source: the supplement of paper PMC9428881
± gives the standard error.

Test: background-corrected fluorescence of 3'-dye-labeled ssDNA relative to brightest sequence (3'-GCGCG) (fraction); higher = brighter dye fluorescence (less quenching)
Procedure, shortened: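 Fluorescence values are background-corrected using unlabeled oligos and expressed relative to the brightest sequence. The single-stranded DNA was made on glass slides by light-directed phosphoramidite synthesis, each of 1024 permuted pentamers ending beside a 3' Cy3 or Cy5 dye. Scans at 532 or 635 nm were taken before and after overnight ethylenediamine/ethanol deprotection, and each value averages 10 features per array and at least 3 syntheses.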

Sequence | background-corrected fluorescence (dye: Cy3 (3' terminal)) | background-corrected fluorescence (dye: Cy5 (3' terminal))
TTTTTTGATGATCATCAGCATTTTTTTTTTTTTTTCCGGT [TGGCC] | 0.729 ± 0.028 | 0.624 ± 0.064
TTTTTTGCTGATGAGCAGCATTTTTTTTTTTTTTTACCTT [TTCCA] | 0.463 ± 0.018 | 0.351 ± 0.018
TTTTTTGCTCATCATCATGATTTTTTTTTTTTTTTAGGGC [CGGGA] | 0.598 ± 0.023 | 0.478 ± 0.064
TTTTTTGATGATGATGATCATTTTTTTTTTTTTTTCCCCG [GCCCC] | 0.471 ± 0.035 | 0.377 ± 0.026
TTTTTTCATGATCAGCATGCTTTTTTTTTTTTTTTGCGTA [ATGCG] | 0.604 ± 0.026 | 0.466 ± 0.026
TTTTTTGCTGCTGATCATGCTTTTTTTTTTTTTTTAACGA [AGCAA] | 0.613 ± 0.0098 | 0.519 ± 0.07
TTTTTTCATGAGCATCATGCTTTTTTTTTTTTTTTGCTGA [AGTCG] | 0.5917 ± 0.0054 | 0.525 ± 0.036
TTTTTTCATGATGATGATCATTTTTTTTTTTTTTTGCCCG | 0.488 ± 0.0067 | 0.394 ± 0.045
TTTTTTGATGATGATCATGCTTTTTTTTTTTTTTTCCCGA [AGCCC] | 0.629 ± 0.051 | 0.554 ± 0.034
TTTTTTGATGCTGATGATGATTTTTTTTTTTTTTTCACCC [CCCAC] | 0.37 ± 0.028 | 0.271 ± 0.019
TTTTTTCATGCGCAGCATCATTTTTTTTTTTTTTTGATTG [GTTAG] | 0.543 ± 0.0077 | 0.355 ± 0.024
TTTTTGCATGCTGATGAGCATTTTTTTTTTTTTTTTACCT [TCCAT] | 0.461 ± 0.017 | 0.345 ± 0.023
TTTTTTGCTCATCAGCATCATTTTTTTTTTTTTTTAGGTG [GTGGA] | 0.585 ± 0.025 | 0.482 ± 0.017
TTTTTGCATCATGATCAGCATTTTTTTTTTTTTTTTGCGT | 0.6597 ± 0.003 | 0.516 ± 0.061
TTTTTGCAGCATGATGCTCATTTTTTTTTTTTTTTTTCAG [GACTT] | 0.506 ± 0.032 | 0.358 ± 0.027
TTTTTTGCTCATGCTGCTGCTTTTTTTTTTTTTTTAGAAA [AAAGA] | 0.64 ± 0.019 | 0.484 ± 0.055
TTTTTGCATGCTCATCATGCTTTTTTTTTTTTTTTTAGGA [AGGAT] | 0.747 ± 0.018 | 0.617 ± 0.032
TTTTTTGCGCAGCATGAGCATTTTTTTTTTTTTTTATTCT [TCTTA] | 0.45 ± 0.021 | 0.326 ± 0.021
TTTTTTGCTGCTGATGCTGCTTTTTTTTTTTTTTTAACAA | 0.527 ± 0.024 | 0.419 ± 0.024
TTTTTTGCTGCGCATCATGATTTTTTTTTTTTTTTAATGC [CGTAA] | 0.515 ± 0.016 | 0.4 ± 0.035
TTTTTTCATGCTCATGCTGATTTTTTTTTTTTTTTGAGAC [CAGAG] | 0.476 ± 0.015 | 0.357 ± 0.018
TTTTTTCATGATGCGCATGCTTTTTTTTTTTTTTTGCATA [ATACG] | 0.574 ± 0.02 | 0.431 ± 0.024
TTTTTTCATCAGCATGATGCTTTTTTTTTTTTTTTGGTCA [ACTGG] | 0.506 ± 0.027 | 0.414 ± 0.02

Sequence | background-corrected fluorescence (dye: Cy3 (3' terminal)) | background-corrected fluorescence (dye: Cy5 (3' terminal))
TTTTTTGCGCATGATGCTGATTTTTTTTTTTTTTTATCAC [CACTA] | 0.399 ± 0.025 | 0.325 ± 0.032
TTTTTTGAGCAGCATGCTCATTTTTTTTTTTTTTTCTTAG [GATTC] | 0.528 ± 0.014 | 0.395 ± 0.039
TTTTTGCATGCTGCTGATCATTTTTTTTTTTTTTTTAACG [GCAAT] | 0.51 ± 0.034 | 0.426 ± 0.037
TTTTTTGCTGCGCATGATGCTTTTTTTTTTTTTTTAATCA [ACTAA] | 0.489 ± 0.025 | 0.382 ± 0.028
TTTTTTGCTGCTCATGCTCATTTTTTTTTTTTTTTAAGAG [GAGAA] | 0.607 ± 0.036 | 0.489 ± 0.086
TTTTTGCATGAGCATCATCATTTTTTTTTTTTTTTTCTGG [GGTCT] | 0.563 ± 0.024 | 0.43 ± 0.035
TTTTTTGATCAGCATCAGCATTTTTTTTTTTTTTTCGTGT [TGTGC] | 0.571 ± 0.022 | 0.466 ± 0.037
TTTTTGCAGCATGATCATGATTTTTTTTTTTTTTTTTCGC [CGCTT] | 0.503 ± 0.031 | 0.406 ± 0.088
TTTTTTGATCATGAGCATGCTTTTTTTTTTTTTTTCGCTA [ATCGC] | 0.549 ± 0.026 | 0.399 ± 0.027
TTTTTTGAGCATGATGCTCATTTTTTTTTTTTTTTCTCAG [GACTC] | 0.517 ± 0.024 | 0.389 ± 0.03
TTTTTGCAGCATGAGCAGCATTTTTTTTTTTTTTTTTCTT | 0.481 ± 0.015 | 0.348 ± 0.026
TTTTTGCATGCTCATGCTCATTTTTTTTTTTTTTTTAGAG [GAGAT] | 0.591 ± 0.014 | 0.477 ± 0.059
TTTTTTGATGCTGCTGCGCATTTTTTTTTTTTTTTCAAAT [TAAAC] | 0.553 ± 0.017 | 0.41 ± 0.061
TTTTTTCATCAGCATGAGCATTTTTTTTTTTTTTTGGTCT [TCTGG] | 0.486 ± 0.026 | 0.391 ± 0.031
TTTTTTCAGCATGCTGCTCATTTTTTTTTTTTTTTGTAAG [GAATG] | 0.582 ± 0.038 | 0.462 ± 0.069
TTTTTTGCTGATCAGCATGATTTTTTTTTTTTTTTACGTC [CTGCA] | 0.448 ± 0.016 | 0.373 ± 0.025
TTTTTTGATGAGCATGATGATTTTTTTTTTTTTTTCCTCC | 0.342 ± 0.03 | 0.273 ± 0.021
TTTTTTGATCATGCGCATCATTTTTTTTTTTTTTTCGATG [GTAGC] | 0.552 ± 0.021 | 0.438 ± 0.024
TTTTTTGCGCATCATGATGCTTTTTTTTTTTTTTTATGCA [ACGTA] | 0.527 ± 0.024 | 0.46 ± 0.036
TTTTTTGCTCATGATGAGCATTTTTTTTTTTTTTTAGCCT [TCCGA] | 0.481 ± 0.039 | 0.394 ± 0.083
TTTTTGCATGATGCGCAGCATTTTTTTTTTTTTTTTCATT [TTACT] | 0.485 ± 0.03 | 0.359 ± 0.028
TTTTTGCATGCTGATCAGCATTTTTTTTTTTTTTTTACGT | 0.584 ± 0.018 | 0.482 ± 0.038
TTTTTTGCGCATGCTGAGCATTTTTTTTTTTTTTTATACT [TCATA] | 0.504 ± 0.024 | 0.378 ± 0.019

Sequence | background-corrected fluorescence (dye: Cy3 (3' terminal)) | background-corrected fluorescence (dye: Cy5 (3' terminal))
TTTTTTGATCAGCATGATGATTTTTTTTTTTTTTTCGTCC [CCTGC] | 0.4 ± 0.0041 | 0.315 ± 0.021
TTTTTGCAGCAGCATGAGCATTTTTTTTTTTTTTTTTTCT [TCTTT] | 0.463 ± 0.024 | 0.321 ± 0.019
TTTTTGCAGCATGCTGCTCATTTTTTTTTTTTTTTTTAAG [GAATT] | 0.536 ± 0.025 | 0.411 ± 0.026
TTTTTTCAGCATGCTCATGATTTTTTTTTTTTTTTGTAGC [CGATG] | 0.535 ± 0.028 | 0.441 ± 0.081
TTTTTTGCGCATGATGATGATTTTTTTTTTTTTTTATCCC [CCCTA] | 0.369 ± 0.026 | 0.247 ± 0.016
TTTTTTCATGCTGCTCATGATTTTTTTTTTTTTTTGAAGC [CGAAG] | 0.547 ± 0.024 | 0.397 ± 0.027
TTTTTTCATCATGCGCATCATTTTTTTTTTTTTTTGGATG [GTAGG] | 0.533 ± 0.031 | 0.388 ± 0.026
TTTTTTCATGCTGCTGCTGATTTTTTTTTTTTTTTGAAAC [CAAAG] | 0.43 ± 0.023 | 0.333 ± 0.045
TTTTTTGCTGATGATGCTGCTTTTTTTTTTTTTTTACCAA [AACCA] | 0.485 ± 0.029 | 0.402 ± 0.022
TTTTTTGAGCAGCAGCATGCTTTTTTTTTTTTTTTCTTTA [ATTTC] | 0.48 ± 0.016 | 0.4 ± 0.037
TTTTTTGCGCAGCAGCATGATTTTTTTTTTTTTTTATTTC [CTTTA] | 0.404 ± 0.0099 | 0.307 ± 0.019
TTTTTTCATCATGCTCAGCATTTTTTTTTTTTTTTGGAGT [TGAGG] | 0.653 ± 0.017 | 0.537 ± 0.048
TTTTTTGCTCATGCTGATGCTTTTTTTTTTTTTTTAGACA [ACAGA] | 0.522 ± 0.06 | 0.383 ± 0.029
TTTTTTGATGATGATGAGCATTTTTTTTTTTTTTTCCCCT | 0.438 ± 0.024 | 0.312 ± 0.016
TTTTTTGCTGATGCTGATCATTTTTTTTTTTTTTTACACG [GCACA] | 0.504 ± 0.029 | 0.422 ± 0.054
TTTTTGCATGCTCATCAGCATTTTTTTTTTTTTTTTAGGT [TGGAT] | 0.634 ± 0.019 | 0.543 ± 0.033
TTTTTTGATCATCATGCTGATTTTTTTTTTTTTTTCGGAC [CAGGC] | 0.531 ± 0.011 | 0.389 ± 0.034
TTTTTTGATGCTCATGCTGATTTTTTTTTTTTTTTCAGAC | 0.451 ± 0.024 | 0.372 ± 0.017
TTTTTTGCGCATGATCATGATTTTTTTTTTTTTTTATCGC [CGCTA] | 0.534 ± 0.017 | 0.439 ± 0.02
TTTTTTGCTGCTGCGCATGATTTTTTTTTTTTTTTAAATC [CTAAA] | 0.439 ± 0.019 | 0.306 ± 0.019
TTTTTTGCTCATGATGCGCATTTTTTTTTTTTTTTAGCAT [TACGA] | 0.519 ± 0.039 | 0.405 ± 0.032
TTTTTTGCTGAGCATGCTGCTTTTTTTTTTTTTTTACTAA [AATCA] | 0.522 ± 0.0087 | 0.413 ± 0.021
TTTTTTGCGCAGCAGCATGCTTTTTTTTTTTTTTTATTTA | 0.545 ± 0.017 | 0.432 ± 0.031
